Results from publication PMC8244301.

Assays:
[1] = target: Truncated L. rhamnosus GG SpaB (GG-SpaBC-trun) protein (residues 31-184) (Lactobacillus rhamnosus GG); experiment: BLI; GG-SpaB protein (10 uM) immobilised on aminopropylsilane (APS) biosensors; mucin Type II (~19.5-312 nM) as analyte; PBS (10 mM sodium phosphate pH 7.4, 137 mM NaCl, 2.7 mM KCl), 30 C; ~600 s association, ~900 s dissociation; 1:1 binding fit; in duplicate
[2] = target: Full-length L. rhamnosus GG SpaB (GG-SpaBFL) protein (residues 33-205) (Lactobacillus rhamnosus GG); experiment: as above
[3] = target: Truncated GG-SpaB (GG-SpaB_(C-trun)) protein (residues 31-184) (Lactobacillus rhamnosus GG); experiment: BLI; conditions: group
[4] = target: Full-length L. rhamnosus GG SpaB (GG-SpaBFL) protein (residues 33-205) (Lactobacillus rhamnosus GG); experiment: BLI; conditions: group

| Substance | Kd [1] [nM] | koff [1] [s⁻¹] | kon [1] [M⁻¹ s⁻¹] | Kd [2] [nM] | koff [2] [s⁻¹] | kon [2] [M⁻¹ s⁻¹] | Kd [3] [nM] | Kd [4] [nM] |
| --- | --- | --- | --- | --- | --- | --- | --- | --- |
| porcine gastric mucin (Type II) (Sigma-Aldrich) | 2.55 | 6.86e-05 | 26300 | 0.306 | 1.09e-05 | 35300 | – | – |
| porcine gastric mucin (Type II) | – | – | – | – | – | – | 2.6 | 0.3 |
